For data set [1], the target named is T1, TG2 (transglutaminase 2), His6-tagged (Homo sapiens, UniProt P21980 1-687).
T1 sequence: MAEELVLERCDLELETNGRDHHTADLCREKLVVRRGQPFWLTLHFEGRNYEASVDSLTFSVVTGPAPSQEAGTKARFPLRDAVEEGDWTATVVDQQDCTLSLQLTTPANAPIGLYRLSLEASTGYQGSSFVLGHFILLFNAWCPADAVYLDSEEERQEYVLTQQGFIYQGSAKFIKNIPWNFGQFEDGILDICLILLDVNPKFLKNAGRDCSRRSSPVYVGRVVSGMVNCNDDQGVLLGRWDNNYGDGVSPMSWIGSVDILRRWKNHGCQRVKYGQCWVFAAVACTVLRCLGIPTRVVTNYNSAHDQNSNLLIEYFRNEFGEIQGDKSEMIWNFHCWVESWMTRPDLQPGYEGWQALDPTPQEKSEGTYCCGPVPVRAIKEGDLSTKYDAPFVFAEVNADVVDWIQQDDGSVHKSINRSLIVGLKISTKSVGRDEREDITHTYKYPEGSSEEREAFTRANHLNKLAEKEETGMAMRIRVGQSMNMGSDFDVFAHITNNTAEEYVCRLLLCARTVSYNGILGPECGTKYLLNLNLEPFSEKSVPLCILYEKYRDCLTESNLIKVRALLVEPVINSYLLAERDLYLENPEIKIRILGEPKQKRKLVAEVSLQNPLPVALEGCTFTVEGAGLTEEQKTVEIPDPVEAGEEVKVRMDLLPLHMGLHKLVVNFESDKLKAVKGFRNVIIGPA
Briefly: pull-down.

The target in data set [2] is T2, TG2 (transglutaminase 2), tag-free (Homo sapiens, UniProt P21980 1-687).
T2 sequence: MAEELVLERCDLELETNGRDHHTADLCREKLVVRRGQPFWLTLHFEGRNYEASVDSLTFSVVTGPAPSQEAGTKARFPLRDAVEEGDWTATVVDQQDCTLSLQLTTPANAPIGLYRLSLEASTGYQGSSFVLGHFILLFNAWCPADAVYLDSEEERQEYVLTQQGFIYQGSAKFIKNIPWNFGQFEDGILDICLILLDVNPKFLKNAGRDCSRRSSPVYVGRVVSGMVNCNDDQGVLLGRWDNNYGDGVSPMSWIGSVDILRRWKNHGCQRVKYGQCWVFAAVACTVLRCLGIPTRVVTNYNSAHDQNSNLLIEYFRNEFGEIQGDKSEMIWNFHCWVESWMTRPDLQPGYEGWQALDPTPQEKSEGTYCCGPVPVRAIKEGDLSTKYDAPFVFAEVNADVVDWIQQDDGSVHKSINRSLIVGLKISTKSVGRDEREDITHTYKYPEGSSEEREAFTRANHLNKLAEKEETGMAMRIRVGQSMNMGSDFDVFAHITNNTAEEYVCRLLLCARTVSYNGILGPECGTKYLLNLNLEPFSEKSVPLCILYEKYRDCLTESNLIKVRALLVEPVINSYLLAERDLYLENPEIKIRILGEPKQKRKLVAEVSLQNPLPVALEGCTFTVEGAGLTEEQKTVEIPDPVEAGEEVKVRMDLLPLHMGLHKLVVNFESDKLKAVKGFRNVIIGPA
Briefly: BLI.

On to AAAAAAAAAAAAAAAAAAAAAAAAAAAAAAAAAAAAAAAAAAAAAAAAA (ssDNA) [poly(dA) 3' End Biotin], for which, in data set [1], the binding result is on record as “no binding”.
A word on the Kd: it is the concentration at which binding is half-saturated. A lower Kd goes with a tighter complex. In data set [2], CCUGGUUUUUAAGGAGUGUCGCCAGAGUGCCGCGAAUGAAAAAC (structured_RNA) [43-mer RNA 3' End Biotin] registered a Kd of 88 nM.
For GGGGGGAGGGGGGAGGGGGGAGGGGGGAGGGGGGAGGGGGGAGGGGGGA (ssDNA) [poly(dG) 3' End Biotin], in data set [1], the binding result was “binds”.

(Values after article doi:10.1101/2024.04.26.591323.)
